Patent EP4711453A1, “PHENYLALANINE LYASE MUTANT, AND CONJUGATE THEREOF OR PHARMACEUTICALLY ACCEPTABLE SALT THEREOF” (Peg-Bio Biopharm Co., Ltd. (Chongqing), priority 2023, dated 2024)

Assays:
[1] = tested on: serum phenylalanine; test: Comparative pharmacodynamics with Pegvaliase: serum phenylalanine after multiple administrations; assay type: in vivo; conditions: Pah^enu mice, 3 mg/kg s.c. once weekly; second to fourth administrations
From the text: To evaluate the differences in pharmacodynamics and immunogenicity between the polyethylene glycol conjugate PL54-5 of directionally saturated modified phenylalanine lyase mutant and Pegvaliase (marketed drug), eight Pah^enu mice were allocated into two groups of four mice each, and administered with either PL54-5 (average degree of modification: 13.60, specific enzyme activity: 1.27 U/mg) from Table 3 of Example 2 or Pegvaliase Injection (manufactured by BioMarin, purchased lot number L161239, specification: 20 mg/mL/vial) at an administration dose of 3.0 mg/kg, once weekly via subcutaneous injection for four consecutive weeks. Blood samples were collected from each group of mice before administration and at 3 days and 7 days after each administration, respectively. Changes in serum phenylalanine concentration were measured (Reference: Judy Peat et al., Determination of Phenylalanine and Tyrosine by High Performance Liquid Chromatography-Tandem Mass Spectrometry) and anti-PEG-IgM/IgG antibody titers of each animal were determined at the end of the study (see Example 5 for details), to assess differences in pharmacodynamics and immunogenicity, as shown in FIG. 11 and FIG. 12.

[2] = parameters: species or system Pah^enu mice; conditions: mouse, in vivo
Experimental: To evaluate the polyethylene glycol conjugate PL54 of site-saturation modified phenylalanine lyase mutant, […] Pah^enu mice were allocated into five groups (four experimental groups and one control group), with six mice in each group. PL54-5 (average degree of modification 13.60, specific enzyme activity 1.27 U/mg) from Table 3 of Example 2 was administered to phenylketonuria animal model mice at low, medium, and high doses of 0.5 mg/kg, 1.5 mg/kg, and 4.5 mg/kg, respectively, via subcutaneous injection. The high-dose group of 4.5 mg/kg also included a group receiving intramuscular administration, once per week. The control group was administered phosphate buffered saline as a placebo subcutaneously once weekly. Blood samples were collected from mice in each group at 1 h before administration and at 2, 5, and 7 days after administration for each group. The content of PL54-5 in serum, changes in phenylalanine concentration (Reference: Judy Peat et al., Determination of Phenylalanine and Tyrosine by High Performance Liquid Chromatography-Tandem Mass Spectrometry), and Anti-PEG-IgM/IgG antibody titers (see Example 5 for details) were detected by sandwich ELISA (see Example 5 for details), and their pharmacokinetics were evaluated, see FIG. 6 to FIG.9 for details.

B1: PL54-5: polyethylene glycol conjugate of PAL4 (SEQ ID NO: 6) with PEG-SPA-5K, molar ratio 1:16, average degree of modification 13.60 (conjugate)
chain: MKTLSQAQSKTSSQQFSFTGNSSANVIIGNQKLTINDVARVARNGTLVSLTNNTDILQGIQASCDYINNAVKSGEPIYGVTSGFGGMANVAISREQASELQTNLVWFLKTGAGNKLPLADVRAAMLLRANSHMRGASGIRLELIKRMEIFLNAGVTPYVYEFGSIGASGDLVPLSYITGSLIGLDPSFKVDFNGKEMDAPTALRQLNLSPLTLLPKEGLAMMNGTSVMTGIAANCVYDTKILTAIAMGVHALDIQALNGTNQSFHPFIHNSKPHPGQLWAADQMISLLANSQLVRDELDGKHDYRDHELIQDRYSLRCLPQYLGPIVDGISQIAKQIEIEINSVTDNPLIDVDNQASYHGGNFLGQYVGMGMDHLRYYIGLLAKHLDVQIALLASPEFSNGLPPSLLGNRERKVNMGLKGLQICGNSIMPLLTFYGNSIADRFPTHAEQFNQNINSQGYTSATLARKSVDIFQNYVAIALMFGVQAVDLRTYKKTGHYDARASLSPATERLYSAVRHVVGQKPTSDRPYIWNDNEQGLDEHIAKISADIAAGGVIVQAVQDILPSLH
modifications: PEG-SPA-5K conjugate, ~13.6 PEG per molecule
For B1, the phenylalanine-lowering effect [1] was “consistently reduced phenylalanine levels on Day 3”, the “plasma drug concentration in relation to the administration dose” value [2] was “directly proportional to the administration dose” and the “plasma drug concentration, intramuscular compared with subcutaneous” value ([2]; 4.5 mg/kg) was “higher than that in the subcutaneous administration group”.
